# Values quoted from earlier work in patent US20110118324A1, “METHOD AND COMPOSITION FOR TREATING MULTIPLE SCLEROSIS (VARIANTS)” (priority 2009, published 2011).
# B1: Betaferon: a recombinant human Beta-1b interferon (protein, UniProt P01574 22-187, looked up, variant C17S)
# Interferon beta: MSYNLLGFLQRSSNFQSQKLLWQLNGRLEYCLKDRMNFDIPEEIKQLQQFQKEDAALTIYEMLQNIFAIFRQDSSSTGWNETIVENLLANVYHQINHLKTVLEEKLEKEDFTRGKLMSSLHLKRYYGRILHYLKAKEYSHCAWTIVRVEILRNFYFINRLTGYLRN
# modifications: lacks N-terminal Met, non-glycosylated
# notes: a recombinant human Beta-1b interferon
# Tested on: multiple sclerosis patients
molecule,measurement,value
B1,reduction of the frequency of acute conditions occurring in the disease,30%
same,reduction of the severity of acute conditions,30%
same,side effects,intensified depressive symptomatology
